Data reported in article PMC5746249.

Columns and labels:
[1] = target: LC8 dynein light chain (DYNLL2), full-length, His6-tagged (UniProt Q96FJ2); experiment: SPR; ProteOn XPR36, HTG chip; His6-LC8 immobilised on Ni2+-NTA surface at three densities (1200, 900, 600 RU); peptides injected at five concentrations, 60 ul/min; 20 mM Hepes, 150 mM NaCl, 0.05% Tween-20, 0.1 mM TCEP, 50 uM EDTA, pH 7.5; 1:1 Langmuir model; Kd is the mean of the kinetic and the equilibrium analysis; apparent
[2] = target: LC8 dynein light chain (DYNLL2), full-length, His6-tagged (UniProt Q96FJ2); experiment: SPR; ProteOn XPR36, HTG chip; His6-LC8 immobilised on Ni2+-NTA at three densities (1200, 900, 600 RU); peptides injected at five concentrations, 60 ul/min, 400 s, dissociation 600 s; 20 mM Hepes, 150 mM NaCl, 0.05% Tween-20, 0.1 mM TCEP, 50 uM EDTA, pH 7.5; 1:1 Langmuir global fit; Kd is the mean of the kinetic and the equilibrium analysis, SD from three individual Kd values

LC8 dynein light chain (DYNLL2), full-length, His6-tagged, sequence (Q96FJ2 whole entry): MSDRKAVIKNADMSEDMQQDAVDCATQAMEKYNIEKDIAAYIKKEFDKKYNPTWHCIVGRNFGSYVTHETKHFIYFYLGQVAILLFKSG

| Kd [1] | Kd [2] | Substance |
| --- | --- | --- |
| 1200 nM |  | MPHOSPH9 LC8 binding motif peptide (motif start 909) |
|  | 1200 nM | MPHOSPH9 LC8 binding motif peptide (start 909) |
